Data: paper PMC9485058, “Glycosylation of a key cubilin Asn residue results in reduced binding to albumin” (The Journal of Biological Chemistry, 2022)
Positions count from the first letter of the chain named. Names may count otherwise. “And” between values parts separate entries of the source, which are not always exact repeats. Equal values may be shown once. One block for each molecule: values may come before it.

B1: CUB6–8 (cubilin 6–8 domain), glycosylated, not treated with PNGaseF (domain or fragment)
chain: CLYDYTDNFGMLSSPNFPNNYPSNWECIYRITVGLNQQIALHFTDFTLEDYFGSQCVDFVEIRDGGYETSPLVGIYCGSVLPPTIISHSNKLWLKFKSDAALTAKGFSAYWDGSSTGCGGNLTTPTGVLTSPNYPMPYYHSSECYWRLEASHGSPFELEFQDFHLEHHPSCSLDYLAVFDGPTTNSRLIDKLCGDTTPAPIRSNKDVVLLKLRTDAGQQGRGFEINFRQRCDNVVIVNKTSGILESINYPNPYDKNQRCNWTIQATTGNTVNYTFLGFDVESYMNCSTDYVELYDGPQWMGRYCGNNMPPPGATTGSQLHVLFHTDGINSGEKGFKMQWFTHG
modifications: N-glycans as made in 293F cells
B2: rat serum albumin (RSA) (natural protein, UniProt P02770 25-608, looked up)
chain: EAHKSEIAHRFKDLGEQHFKGLVLIAFSQYLQKCPYEEHIKLVQEVTDFAKTCVADENAENCDKSIHTLFGDKLCAIPKLRDNYGELADCCAKQEPERNECFLQHKDDNPNLPPFQRPEAEAMCTSFQENPTSFLGHYLHEVARRHPYFYAPELLYYAEKYNEVLTQCCTESDKAACLTPKLDAVKEKALVAAVRQRMKCSSMQRFGERAFKAWAVARMSQRFPNAEFAEITKLATDVTKINKECCHGDLLECADDRAELAKYMCENQATISSKLQACCDKPVLQKSQCLAEIEHDNIPADLPSIAADFVEDKEVCKNYAEAKDVFLGTFLYEYSRRHPDYSVSLLLRLAKKYEATLEKCCAEGDPPACYGTVLAEFQPLVEEPKNLVKTNCELYEKLGEYGFQNAVLVRYTQKAPQVSTPTLVEAARNLGRVGTKCCTLPEAQRLPCVEDYLSAILNRLCVLHEKTPVSEKVTKCCSGSLVERRPCFSALTVDETYVPKEFKAETFTFHSDICTLPDKEKQIKKQTALAELVKHKPKATEDQLKTVMGDFAQFVDKCCKAADKDNCFATEGPNLVARSKEALA
modifications: in MST: Texas Red-X succinimidyl ester or Oregon Green 488-X succinimidyl ester conjugate, dye:protein molar ratio 1:1
notes: serum albumin, rat, UniprotKB P02770; Labelled with dye in MST; also called rat albumin; source: bought: Sigma
B3: PNGaseF-deglycosylated CUB7,8 (domain or fragment, rat, UniProt O70244 1165-1389, looked up)
chain: CGGNLTTPTGVLTSPNYPMPYYHSSECYWRLEASHGSPFELEFQDFHLEHHPSCSLDYLAVFDGPTTNSRLIDKLCGDTTPAPIRSNKDVVLLKLRTDAGQQGRGFEINFRQRCDNVVIVNKTSGILESINYPNPYDKNQRCNWTIQATTGNTVNYTFLGFDVESYMNCSTDYVELYDGPQWMGRYCGNNMPPPGATTGSQLHVLFHTDGINSGEKGFKMQWFTH
modifications: N-glycans removed with PNGaseF
notes: cubilin, rat, CUB7 (1165–1277) and CUB8 (1278–1389) of full length cubilin UniProtKB O70244; also called CUB7,8 after PNGaseF treatment (+); His tagged CUB7,8 domain; not shown: His6, C-terminal, kept
B4: CUB7,8-N1285P, not treated with PNGaseF (domain or fragment, rat, UniProt O70244 1165-1389, looked up)
chain: B3 chain with N121P
modifications: N-glycans as made in 293F cells (N1168, N1303, N1319 by MS, Table 2)
notes: also called CUB7,8 N1285P mutant; source: 293F cells, purified as the other cubilin proteins (Ni-NTA Superflow, gel filtration)

Assays:
[1] = molecular target: RSA 200 mM glucose (RSA200G) (rat) (UniProt P02770); assay: MST; Monolith NT.115, standard capillaries, 25 °C, 67 mM NaPO4, 150 mM NaCl, 0.05% Tween 20, pH 7.4 + 1 mM CaCl2; albumin labelled with a fluorescent dye (1:1), cubilin domain unlabelled
[2] = molecular target: RSA 500 mM glucose (RSA500G) (rat) (UniProt P02770); assay: as above
[3] = molecular target: RSA 5 mM methylglyoxal (RSA5MGO) (rat) (UniProt P02770); assay: as above
[4] = molecular target: RSA 1 mM methylglyoxal (RSA1MGO) (rat) (UniProt P02770); assay: as above
[5] = molecular target: RSA 20 mM glucose (RSA20G) (rat) (UniProt P02770); assay: as above
[6] = molecular target: B2; assay: as above
[7] = molecular target: Albumin (Rattus norvegicus) (UniProt P02770); conditions: cited from earlier work
[8] = molecular target: the molecule itself; assay: SEC-MALS; Agilent Infinity II HPLC with Wyatt DAWN HELEOS II and Optilab T-rEX, 25 °C, running buffer with 2% v/v glycerol; cubilin domains not treated with any glycosidase
[9] = molecular target: B2; assay: MST; as a1 but at pH 6.0; albumin labelled
[10] = molecular target: B2; assay: MST; as a1 but at pH 5.0 (buffer not told); albumin labelled
[11] = molecular target: T1, rabbit albumin (rabbit, UniProt P49065 25-608, fluorescent dye conjugate for MST (Texas Red-X or Oregon Green 488-X succinimidyl ester)); assay: MST; Monolith NT.115, standard capillaries, 25 °C, 67 mM NaPO4, 150 mM NaCl, 0.05% Tween 20, pH 7.4 + 1 mM CaCl2; albumin labelled with a fluorescent dye (1:1), cubilin domain unlabelled; conditions: both partners purified
T1 construct: albumin, rabbit
T1 sequence (P49065 25-608): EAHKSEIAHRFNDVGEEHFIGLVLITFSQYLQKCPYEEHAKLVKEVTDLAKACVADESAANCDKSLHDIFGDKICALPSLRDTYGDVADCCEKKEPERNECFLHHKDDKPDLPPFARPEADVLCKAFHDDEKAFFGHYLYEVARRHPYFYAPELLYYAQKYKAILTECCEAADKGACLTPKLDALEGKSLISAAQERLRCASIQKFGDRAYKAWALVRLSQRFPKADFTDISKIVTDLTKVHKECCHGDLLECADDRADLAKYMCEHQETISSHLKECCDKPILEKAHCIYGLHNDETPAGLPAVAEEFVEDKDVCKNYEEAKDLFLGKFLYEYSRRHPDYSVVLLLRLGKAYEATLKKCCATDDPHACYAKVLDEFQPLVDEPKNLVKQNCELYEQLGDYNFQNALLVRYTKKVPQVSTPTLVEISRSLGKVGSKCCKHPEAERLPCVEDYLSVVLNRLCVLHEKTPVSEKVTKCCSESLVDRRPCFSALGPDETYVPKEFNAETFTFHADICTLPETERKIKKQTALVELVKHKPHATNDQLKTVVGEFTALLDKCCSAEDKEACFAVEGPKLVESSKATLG

[12] = molecular target: T2, human albumin (human, UniProt P02768 25-609, fluorescent dye conjugate for MST (Texas Red-X or Oregon Green 488-X succinimidyl ester)); assay: as above; conditions: both partners purified
T2 construct: albumin, human
T2 sequence (P02768 25-609): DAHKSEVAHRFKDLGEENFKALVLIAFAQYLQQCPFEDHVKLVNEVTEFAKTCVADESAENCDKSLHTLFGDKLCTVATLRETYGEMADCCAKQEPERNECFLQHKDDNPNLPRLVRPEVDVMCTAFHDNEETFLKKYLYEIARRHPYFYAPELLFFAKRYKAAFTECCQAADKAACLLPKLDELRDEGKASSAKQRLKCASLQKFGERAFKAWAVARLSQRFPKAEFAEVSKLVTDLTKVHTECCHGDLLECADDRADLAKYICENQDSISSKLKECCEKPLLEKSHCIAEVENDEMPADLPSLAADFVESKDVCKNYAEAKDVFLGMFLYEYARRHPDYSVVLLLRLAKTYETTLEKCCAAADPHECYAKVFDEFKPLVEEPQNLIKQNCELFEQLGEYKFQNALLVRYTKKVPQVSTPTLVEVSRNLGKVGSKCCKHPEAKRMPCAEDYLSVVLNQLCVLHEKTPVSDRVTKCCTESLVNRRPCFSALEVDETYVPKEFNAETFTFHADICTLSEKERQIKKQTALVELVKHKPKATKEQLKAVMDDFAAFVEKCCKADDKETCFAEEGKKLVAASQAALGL

[13] = molecular target: T3, bovine albumin (bovine, UniProt P02769 25-607, fluorescent dye conjugate for MST (Texas Red-X or Oregon Green 488-X succinimidyl ester)); assay: as above; conditions: both partners purified
T3 construct: albumin, bovine
T3 sequence (P02769 25-607): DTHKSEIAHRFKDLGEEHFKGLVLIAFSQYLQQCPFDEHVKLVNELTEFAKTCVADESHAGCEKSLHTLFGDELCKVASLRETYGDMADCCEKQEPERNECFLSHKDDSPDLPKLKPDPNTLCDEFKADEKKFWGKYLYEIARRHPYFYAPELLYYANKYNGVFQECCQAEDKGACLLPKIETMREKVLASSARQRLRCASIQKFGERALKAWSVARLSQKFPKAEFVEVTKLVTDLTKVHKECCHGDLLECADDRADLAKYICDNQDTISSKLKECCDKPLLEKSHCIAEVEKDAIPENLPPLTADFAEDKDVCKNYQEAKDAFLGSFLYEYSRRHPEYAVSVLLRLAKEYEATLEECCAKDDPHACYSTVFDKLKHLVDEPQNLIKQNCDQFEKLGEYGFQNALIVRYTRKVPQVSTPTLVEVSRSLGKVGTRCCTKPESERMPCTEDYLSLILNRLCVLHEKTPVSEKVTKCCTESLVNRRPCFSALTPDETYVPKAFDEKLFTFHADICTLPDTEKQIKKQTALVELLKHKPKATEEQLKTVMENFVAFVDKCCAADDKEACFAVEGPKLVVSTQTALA

[14] = molecular target: the molecule itself; assay: SEC-MALS; data not shown; CUB7,8N1285P

Kd [1]: 9.4 µM
Kd [2]: > 100 µM
Kd [3]: > 100 µM
Kd [4]: 28 µM
Kd [5]: 2000 µM
Kd [6]: 500 to 1000 µM
Kd ([6]; record 2): 0.5 to 1 µM and 1 µM
Molecule: PNGaseF-deglycosylated CUB6–8 (domain or fragment)

Molecule: Cubilin (from UniProt O70244)
Kd [7]: 0.63 µM

Kd [6]: > 100 µM
Molecule: CUB7,8 (cubilin 7,8 domain), glycosylated, not treated with PNGaseF (from UniProt O70244 1165-1389) (domain or fragment)

Molecule: B1
Kd ([6]; both partners purified): > 100 µM

Molecule: B2
stoichiometry N [8]: 2

Molecule: B3
Kd [9]: 1700 µM
Kd [1]: 25.6 µM
Kd [2]: > 100 µM
Kd [3]: > 100 µM
Kd [4]: 35 µM
Kd [5]: 2500 µM
Kd [10]: 1400 µM
Kd [11]: 0.9 to 1.4 µM
Kd [12]: 0.95 to 1.5 µM
Kd [13]: > 100 µM
Kd [6]: 0.5 to 1.2 µM
Kd ([6]; record 2): 500 to 1000 µM

Molecule: B4
stoichiometry N [14]: 2
